Ends that are not written are not given here.
T1: CRF2R
T1 sequence (Q13324 whole entry, species assumed, looked up): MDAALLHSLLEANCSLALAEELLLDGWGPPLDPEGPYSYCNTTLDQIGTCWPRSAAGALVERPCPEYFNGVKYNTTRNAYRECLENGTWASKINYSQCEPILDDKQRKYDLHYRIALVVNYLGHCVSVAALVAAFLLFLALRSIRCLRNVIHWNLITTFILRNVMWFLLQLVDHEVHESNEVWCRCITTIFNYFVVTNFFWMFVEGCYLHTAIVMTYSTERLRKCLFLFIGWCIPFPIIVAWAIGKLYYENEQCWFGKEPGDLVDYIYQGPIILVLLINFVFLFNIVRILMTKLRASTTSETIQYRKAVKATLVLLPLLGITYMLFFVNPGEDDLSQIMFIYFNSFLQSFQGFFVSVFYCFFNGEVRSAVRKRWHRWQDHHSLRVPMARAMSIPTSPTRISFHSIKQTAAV


Target: T1, CRF2R
Assay: cell-based or functional assay
Wherever CRF1R Emax % is given: reference of the scale not given here.
Wherever CRF2R Emax % is given: reference of the scale not given here.

Row | CRF2R EC50 [nM] | CRF2R Emax % [%] | Binder
1 | 19.6 | 86.8 | ZGPPISIDLPFQLLRKTIEIEKQEKEKQQATTNARLLDRV (C-terminal amide) [SEQ ID NO 321]
2 | 13.2 | 93.5 | DNPSLSIDLPLFLLRTLLELEKTQSQRERAEQNARIFARV-NH2 [SEQ ID NO 334]
3 | 28.4 | 100 | DNPSLSIDLPLLLLRTLLELEKTQSQRERAEQNAQIFAQV-NH2 [SEQ ID NO 327]
4 | 100 | 47.9 | DNPSLSIDLPQYLLRTLLELARTQSQRERAEQNAIIFASV-NH2 [SEQ ID NO 339]
5 | 5.15 | 98.3 | DNPSLSIDLPLFLLRTLLELARTQSQRERAEQNARIFARV-NH2 [SEQ ID NO 329]
6 | 13.6 | 96.5 | DNPSLSIDLPLFLLRTLLELEKTQSQRERAEQNAIIFASV-NH2 [SEQ ID NO 343]
7 | 5.82 | 96.5 | ZGPPISIDLPFALLRKMIEIEKQEKEKQQAANNRLLLDTI (C-terminal amide) [SEQ ID NO 307]
8 | 8.5 | 95 | ZGPPISIDLPFFLLRKMIEIEKQEKEKQQAANNALLLATI (C-terminal amide) [SEQ ID NO 319]
9 | 14.1 | 95 | ZGPPISIDLPYHLLRKVIEIEKQEKEKQQAANNALLLDTI (C-terminal amide) [SEQ ID NO 312]
10 | 9.95 | 95.4 | ZGPPISIDLPFFLLRKMIEIEKQEKEKQQAANNALLLDTI (C-terminal amide) [SEQ ID NO 318]
11 | 10.2 | 94.5 | ZGPPISIDLPFFLLRKVIEIEKQEKEKQQAANNALLLDTI (C-terminal amide) [SEQ ID NO 316]
12 | 33.7 | 100 | DNPSLSIDLPLLLLRTLLELEKTQSQRERAEQNANIFANV-NH2 [SEQ ID NO 326]
13 | 17.2 | 100 | DNPSLSIDLPLLLLRTLLELEKTQSQRERAEQNAQIFAHV-NH2 [SEQ ID NO 324]
14 | 9.95 | 100 | PSLSIDLPLILLRTLLELEKTQSQRERAEQNARIFARV-NH2 [SEQ ID NO 332]
15 | 17.8 | 100 | DNPSLSIDLPLFLLRTLLELEKTQSQRERAEQNARIFDRV-NH2 [SEQ ID NO 336]
16 | 9.85 | 100 | PSLSIDLPLFLLRTLLELEKTQSQRERAEQNARIFARV-NH2 [SEQ ID NO 331]
17 | 6 | 93.7 | DNPSLSIDLPLILLRTLLELARTQSQRERAEQNARIFARV-NH2 [SEQ ID NO 330]
18 | 9.85 | 96.9 | PSLSIDLPLLLLRTLLELEKTQSQRERAEQNARIFARV-NH2 [SEQ ID NO 333]
19 | 20.2 | 92.2 | DNPSLSIDLPLQLLRTLLELEKTQSQRERAEQNAIIFASV-NH2 [SEQ ID NO 342]
20 | 9.35 | 81.7 | ZGPPISIDLPYHLLRKMIEIEKQEKEKQQAANNALLLAT (C-terminal amide) [SEQ ID NO 315]

Second part, the binder before the results:

Row | Binder | CRF2R EC50 [nM] | CRF2R Emax % [%]
21 | ZGPPISIDLPLQLLRKVIEIEKQEKEKQQATTNARILARV (C-terminal amide) [SEQ ID NO 320] | 19.1 | 100
22 | IVLSLDVPIGLLQKMIEIEKQEKEKQQATTNARILARV-NH2 [SEQ ID NO 322] | 23.1 | 96.5
23 | DNPSLSIDLPLLLLRTLLELEKTQSQRERAEQNAHIFAHV-NH2 [SEQ ID NO 328] | 11.7 | 95.7
24 | DNPSLSIDLPLLLLRTLLELEKTQSQRERAEQNARIFARV-NH2 [SEQ ID NO 341] | 8.83 | 95.5
25 | DNPSLSIDLPLILLRTLLELEKTQSQRERAEQNARIFARV-NH2 [SEQ ID NO 335] | 28.1 | 91
26 | DNPSLSIDLPLILLRTLLELEKTQSQRERAEQNARIFDRV-NH2 [SEQ ID NO 337] | 23.9 | 86.7
27 | DNPSLSIDLPLLLLRTLLELEKTQSQRERAEQNARIFDRV-NH2 [SEQ ID NO 338] | 19.3 | 77.5
28 | DNPSLSIDLPLLLLRTLLELEKTQSQRERAEQNAEIFAEV-NH2 [SEQ ID NO 323] | 19.6 | 100
29 | ZGPPISIDLPFFLLRKVIEIEKQEKEKQQAANNALLLATI (C-terminal amide) [SEQ ID NO 317] | 9.3 | 88.3
30 | ZGPPISIDLPYALLRKMIEIEKQEKEKQQAANNRLLLDTI (C-terminal amide) [SEQ ID NO 309] | 5.55 | 99.9
31 | ZGPPISIDLPYHLLRKVIEIEKQEKEKQQAANNALLLATI (C-terminal amide) [SEQ ID NO 313] | 11.1 | 95
32 | ZGPPISIDLPYHLLRKMIEIEKQEKEKQQAANNALLLDTI (C-terminal amide) [SEQ ID NO 314] | 10.3 | 99.8
33 | ZGPPISIDLPYWLLRKVIEIEKQEKEKQQAANNALLLDTI (C-terminal amide) [SEQ ID NO 311] | 11.7 | 100
34 | ZGPPISIDLPLALLRKMIEIEKQEKEKQQAANNRLLLDTI (C-terminal amide) [SEQ ID NO 308] | 3.3 | 72.8
35 | ZGPPISIDLPYWLLRKMIEIEKQEKEKQQAANNALLLDTI (C-terminal amide) [SEQ ID NO 310] | 8.7 | 87.5
36 | DNPSLSIDLPLLLLRTLLELARTQSQRERAEQNARIFARV-NH2 [SEQ ID NO 340] | 7.99 | 100
37 | IVLSLDVPIGLLQILLEQEKARAAREQATTNARILARV-NH2 [SEQ ID NO 325] | 11.7 | 100

Target: CRF1R
Assay: cell-based or functional assay

Row | CRF1R EC50 [nM] | CRF1R Emax % [%] | Binder
38 | 1000 | 33.8 | ZGPPISIDLPFQLLRKTIEIEKQEKEKQQATTNARLLDRV (C-terminal amide) [SEQ ID NO 321]
39 | 1000 | 82.6 | DNPSLSIDLPLFLLRTLLELEKTQSQRERAEQNARIFARV-NH2 [SEQ ID NO 334]
40 | 1000 | 36.5 | DNPSLSIDLPLLLLRTLLELEKTQSQRERAEQNAQIFAQV-NH2 [SEQ ID NO 327]
41 | 1000 | 13.2 | DNPSLSIDLPQYLLRTLLELARTQSQRERAEQNAIIFASV-NH2 [SEQ ID NO 339]
42 | 1000 | 98.4 | DNPSLSIDLPLFLLRTLLELARTQSQRERAEQNARIFARV-NH2 [SEQ ID NO 329]
43 | 783 | 62.5 | DNPSLSIDLPLFLLRTLLELEKTQSQRERAEQNAIIFASV-NH2 [SEQ ID NO 343]
44 | 78.4 | 92.7 | ZGPPISIDLPFALLRKMIEIEKQEKEKQQAANNRLLLDTI (C-terminal amide) [SEQ ID NO 307]
45 | 106 | 88.3 | ZGPPISIDLPFFLLRKMIEIEKQEKEKQQAANNALLLATI (C-terminal amide) [SEQ ID NO 319]
46 | 870 | 62 | ZGPPISIDLPYHLLRKVIEIEKQEKEKQQAANNALLLDTI (C-terminal amide) [SEQ ID NO 312]
47 | 134 | 92.8 | ZGPPISIDLPFFLLRKMIEIEKQEKEKQQAANNALLLDTI (C-terminal amide) [SEQ ID NO 318]
48 | 222 | 92.3 | ZGPPISIDLPFFLLRKVIEIEKQEKEKQQAANNALLLDTI (C-terminal amide) [SEQ ID NO 316]
49 | 1000 | 30.1 | DNPSLSIDLPLLLLRTLLELEKTQSQRERAEQNANIFANV-NH2 [SEQ ID NO 326]
50 | 1000 | 46.6 | DNPSLSIDLPLLLLRTLLELEKTQSQRERAEQNAQIFAHV-NH2 [SEQ ID NO 324]
51 | 1000 | 61.3 | PSLSIDLPLILLRTLLELEKTQSQRERAEQNARIFARV-NH2 [SEQ ID NO 332]
52 | 1000 | 59.9 | DNPSLSIDLPLFLLRTLLELEKTQSQRERAEQNARIFDRV-NH2 [SEQ ID NO 336]
53 | 1000 | 78.7 | PSLSIDLPLFLLRTLLELEKTQSQRERAEQNARIFARV-NH2 [SEQ ID NO 331]
54 | 1000 | 86.8 | DNPSLSIDLPLILLRTLLELARTQSQRERAEQNARIFARV-NH2 [SEQ ID NO 330]
55 | 1000 | 43.8 | PSLSIDLPLLLLRTLLELEKTQSQRERAEQNARIFARV-NH2 [SEQ ID NO 333]
56 | 1000 | 19.6 | DNPSLSIDLPLQLLRTLLELEKTQSQRERAEQNAIIFASV-NH2 [SEQ ID NO 342]
57 | 454 | 100 | ZGPPISIDLPYHLLRKMIEIEKQEKEKQQAANNALLLAT (C-terminal amide) [SEQ ID NO 315]

Continued, binder first:

Row | Binder | CRF1R EC50 [nM] | CRF1R Emax % [%]
58 | ZGPPISIDLPLQLLRKVIEIEKQEKEKQQATTNARILARV (C-terminal amide) [SEQ ID NO 320] | 718 | 68.8
59 | IVLSLDVPIGLLQKMIEIEKQEKEKQQATTNARILARV-NH2 [SEQ ID NO 322] | 1000 | 10.7
60 | DNPSLSIDLPLLLLRTLLELEKTQSQRERAEQNAHIFAHV-NH2 [SEQ ID NO 328] | 1000 | 30.7
61 | DNPSLSIDLPLLLLRTLLELEKTQSQRERAEQNARIFARV-NH2 [SEQ ID NO 341] | 850 | 82.3
62 | DNPSLSIDLPLILLRTLLELEKTQSQRERAEQNARIFARV-NH2 [SEQ ID NO 335] | 1000 | 49.5
63 | DNPSLSIDLPLILLRTLLELEKTQSQRERAEQNARIFDRV-NH2 [SEQ ID NO 337] | 1000 | 36.5
64 | DNPSLSIDLPLLLLRTLLELEKTQSQRERAEQNARIFDRV-NH2 [SEQ ID NO 338] | 1000 | 41.1
65 | DNPSLSIDLPLLLLRTLLELEKTQSQRERAEQNAEIFAEV-NH2 [SEQ ID NO 323] | 1000 | 36.9
66 | ZGPPISIDLPFFLLRKVIEIEKQEKEKQQAANNALLLATI (C-terminal amide) [SEQ ID NO 317] | 188 | 100
67 | ZGPPISIDLPYALLRKMIEIEKQEKEKQQAANNRLLLDTI (C-terminal amide) [SEQ ID NO 309] | 108 | 96.3
68 | ZGPPISIDLPYHLLRKVIEIEKQEKEKQQAANNALLLATI (C-terminal amide) [SEQ ID NO 313] | 704 | 87.1
69 | ZGPPISIDLPYHLLRKMIEIEKQEKEKQQAANNALLLDTI (C-terminal amide) [SEQ ID NO 314] | 978 | 82.4
70 | ZGPPISIDLPYWLLRKVIEIEKQEKEKQQAANNALLLDTI (C-terminal amide) [SEQ ID NO 311] | 1000 | 29.7
71 | ZGPPISIDLPLALLRKMIEIEKQEKEKQQAANNRLLLDTI (C-terminal amide) [SEQ ID NO 308] | 63.5 | 100
72 | ZGPPISIDLPYWLLRKMIEIEKQEKEKQQAANNALLLDTI (C-terminal amide) [SEQ ID NO 310] | 1000 | 45.3
73 | DNPSLSIDLPLLLLRTLLELARTQSQRERAEQNARIFARV-NH2 [SEQ ID NO 340] | 740 | 96
74 | IVLSLDVPIGLLQILLEQEKARAAREQATTNARILARV-NH2 [SEQ ID NO 325] | 100 | 5
